Source: patent US20190247519

Tests used:
Assay in all cases: cell_activity
[1] = test system: ZF6xHunt-Kox-1 (artificial (human Zif268 scaffold)); conditions: mRNA repression up to 2.5-fold (60%); protein 2-fold; STHdh cells 20 days
[2] = test system: ZF11xHunt-Kox-1 (ZF-Kox-1) (artificial (human Zif268 scaffold))
[3] = test system: mZF11-ZF87 (mZF-ZF87, mZF-KRAB) (artificial (mouse Zif268 scaffold)); conditions: R6/1 mice, 2 weeks after AAV injection; mZF-ZF87 design given as SEQ 50 (p342), legend of FIG. 13 cites SEQ 49
Chain of mZF11-ZF87 (mZF-ZF87, mZF-KRAB) (artificial (mouse Zif268 scaffold)) (chain, as listed by the source): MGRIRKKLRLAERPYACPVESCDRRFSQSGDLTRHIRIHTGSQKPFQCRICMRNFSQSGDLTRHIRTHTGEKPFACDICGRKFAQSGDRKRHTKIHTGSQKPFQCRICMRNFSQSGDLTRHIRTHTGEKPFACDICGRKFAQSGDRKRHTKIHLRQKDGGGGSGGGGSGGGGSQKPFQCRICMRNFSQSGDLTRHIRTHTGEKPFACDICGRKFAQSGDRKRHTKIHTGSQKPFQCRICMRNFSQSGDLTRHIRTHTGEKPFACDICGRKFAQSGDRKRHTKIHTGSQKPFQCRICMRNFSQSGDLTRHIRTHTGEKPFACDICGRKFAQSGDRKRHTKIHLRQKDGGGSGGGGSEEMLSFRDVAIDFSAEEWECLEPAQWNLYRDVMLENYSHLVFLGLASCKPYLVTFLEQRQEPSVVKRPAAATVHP

Chain of ZF11xHunt-Kox-1 (ZF-Kox-1) (artificial (human Zif268 scaffold)) (chain, as listed by the source): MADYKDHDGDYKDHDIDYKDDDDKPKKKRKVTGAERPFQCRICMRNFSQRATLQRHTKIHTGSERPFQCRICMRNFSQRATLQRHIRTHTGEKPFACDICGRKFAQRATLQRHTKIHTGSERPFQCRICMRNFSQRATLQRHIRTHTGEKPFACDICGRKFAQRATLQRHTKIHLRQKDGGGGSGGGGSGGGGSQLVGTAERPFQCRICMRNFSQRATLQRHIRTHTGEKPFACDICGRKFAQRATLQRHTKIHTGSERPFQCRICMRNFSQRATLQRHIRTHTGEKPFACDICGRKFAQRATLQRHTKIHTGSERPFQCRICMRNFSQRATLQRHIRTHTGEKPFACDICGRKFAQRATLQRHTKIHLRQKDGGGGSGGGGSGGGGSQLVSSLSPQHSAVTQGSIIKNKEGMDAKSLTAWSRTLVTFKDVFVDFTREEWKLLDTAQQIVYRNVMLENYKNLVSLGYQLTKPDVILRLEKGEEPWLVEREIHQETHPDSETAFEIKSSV
Chain of ZF6xHunt-Kox-1 (artificial (human Zif268 scaffold)) (chain, as listed by the source): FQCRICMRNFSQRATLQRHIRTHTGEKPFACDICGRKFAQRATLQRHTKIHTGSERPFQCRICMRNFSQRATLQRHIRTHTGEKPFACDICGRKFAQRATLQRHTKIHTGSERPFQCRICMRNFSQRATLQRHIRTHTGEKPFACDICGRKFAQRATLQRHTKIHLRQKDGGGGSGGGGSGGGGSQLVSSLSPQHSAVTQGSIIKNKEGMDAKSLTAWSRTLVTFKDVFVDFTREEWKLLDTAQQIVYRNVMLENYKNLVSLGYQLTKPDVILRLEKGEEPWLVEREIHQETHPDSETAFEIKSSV

Row | Substance | activity [1] [fold] | activity ([2]; almost 80% mRNA reduction, 95% protein reduction, STHdh cells 20 days) [% reduction] | activity ([2]; R6/2 mice, 2 weeks after AAV injection, mRNA) [% reduction] | activity [3] [% reduction]
1 | chromosomal mutant Htt Q111 (STHdhQ111) | 2.5 | 80 | – | –
2 | mutant HTT transgene in R6/2 or R6/1 mice | – | – | 35 | 30
